Data published in doi:10.1101/547208, “A single dose of antibody-1 drug conjugate cures a stage model of African trypanosomiasis” (bioRxiv, 2019).
Residue numbers refer to the chain shown, from its start.

B1: Tb017 scFv (scFv, V domains shown)
VH: QVQLVQSGAEVKKPGSSVKVSCKASGGTFSSYAISWVRQAPGQGLEWMGGIIPIFGTANYAQKFQGRVTITADESTSTAYMELSSLRSEDTAVYYCARGWWYDLVFDYWGQGTLVTVSS
VL: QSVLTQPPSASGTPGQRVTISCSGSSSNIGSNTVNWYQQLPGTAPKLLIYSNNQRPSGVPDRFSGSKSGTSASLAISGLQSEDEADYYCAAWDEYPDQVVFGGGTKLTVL
notes: The name Tb017 is printed for the IgG1 and its conjugate; source: phage produced from E. coli, phage-containing supernatant
B2: Tb073 scFv (scFv, V domains shown)
VH: B1 VH with W101Y, Y102D, D103M, L104G, V105D, Y108M
VL: QSVLTQPPSASGTPGQRVTISCSGSSSNIGSNTVNWYQQLPGTAPKLLIYSNNQRPSGVPDRFSGSKSGTSASLAISGLQSEDEADYYCAAWDWHHGHVVVFGGGTKLTVL
notes: The name Tb073 is printed for the IgG1 and its conjugate; source: phage produced from E. coli, phage-containing supernatant
B3: Tb074 scFv (scFv, V domains shown)
VH: B1 VH with Y102H, D103E, L104P, V105G
VL: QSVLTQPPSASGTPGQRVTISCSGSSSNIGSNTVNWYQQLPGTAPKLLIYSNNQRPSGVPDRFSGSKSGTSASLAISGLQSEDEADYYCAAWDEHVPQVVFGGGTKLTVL
notes: The name Tb074 is printed for the IgG1 and its conjugates; source: phage produced from E. coli, phage-containing supernatant
B4: Tb078 scFv (scFv, V domains shown)
VH: B1 VH with W101I, D103E, L104F, V105I, F106I, Y108A
VL: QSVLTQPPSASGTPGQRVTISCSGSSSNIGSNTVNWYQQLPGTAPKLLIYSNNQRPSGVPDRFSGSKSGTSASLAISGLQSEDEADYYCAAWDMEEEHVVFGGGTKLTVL
notes: The name Tb078 is printed for the IgG1 and its conjugate; source: phage produced from E. coli, phage-containing supernatant
B5: Tb085 scFv (scFv, V domains shown)
VH: B1 VH with G99E, W100G, Y102D, D103Y, L104G, V105W, Y108F
VL: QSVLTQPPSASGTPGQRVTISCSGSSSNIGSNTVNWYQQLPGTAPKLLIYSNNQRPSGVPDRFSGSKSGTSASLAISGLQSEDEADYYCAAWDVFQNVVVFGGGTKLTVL
notes: The name Tb085 is printed for the IgG1 and its conjugates; source: phage produced from E. coli, phage-containing supernatant
B6: Tb086 scFv (scFv, V domains shown)
VH: B1 VH with W101Y, D103H, L104G, V105G, F106I
VL: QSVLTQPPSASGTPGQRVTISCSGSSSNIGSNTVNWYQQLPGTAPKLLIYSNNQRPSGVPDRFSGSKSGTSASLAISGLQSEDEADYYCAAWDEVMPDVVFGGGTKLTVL
notes: The name Tb086 is printed for the IgG1; source: phage produced from E. coli, phage-containing supernatant

molecular target: T1, Recombinant HpHbR N-terminal domain (Trypanosoma brucei brucei (strain not …, biotin (biotinylated form on streptavidin-coated plates; a non-biotinylated form was coated on Maxisorp plates)); assay: ELISA; phage ELISA: 10 ug/ml HpHbR NTD coated on Nunc Maxisorp plates or 5 ug/mL biotinylated NTD on streptavidin-coated plates overnight at 4°C; blocked phage supernatants 1 hr at room temperature; bound phage detected with anti-M13 HRP antibody; BSA and streptavidin in parallel; settings: one partner purified
T1 construct: also called HpHbR NTD; TbHpHbR NTD; source: recombinant, expressed as previously described (34)

Binder	binding result
B1	binds
B2	binds
B3	binds
B4	binds
B5	binds
B6	binds
